Residue numbers refer to the chain shown, from its start.
T1: hCLDN18.2 peptide (amino acid residues 28-37 of hCLDN18.2) (human)
T1 construct: Synthesised by Sangon Biotech; coated on ELISA plates; also called antigen peptide; hCLDN18.2 Peptide (aa28-37)
T1 peptide: DQWSTQDLYN

T2: Human recombinant CLDN18.2 (N-6His) variant (human)
T2 construct: Bought fusion polypeptide; also called recombinant hCLDN18.2 variant protein; Novoprotein NC101
T2 chain: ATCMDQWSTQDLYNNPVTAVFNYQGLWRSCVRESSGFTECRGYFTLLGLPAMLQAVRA

T3: human CLDN18.1 (human, UniProt P56856 1-261)
T3 construct: also called hCLDN18.1
T3 sequence: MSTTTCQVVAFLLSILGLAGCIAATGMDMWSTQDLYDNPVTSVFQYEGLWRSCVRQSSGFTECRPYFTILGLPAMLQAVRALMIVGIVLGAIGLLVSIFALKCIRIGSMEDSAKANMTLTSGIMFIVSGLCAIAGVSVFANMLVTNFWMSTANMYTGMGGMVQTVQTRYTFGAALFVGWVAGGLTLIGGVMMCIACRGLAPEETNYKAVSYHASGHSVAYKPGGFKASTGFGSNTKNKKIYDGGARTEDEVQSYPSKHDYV

B1: GC182 (antibody, V domains shown)
VH: QIQLVQSGPELKKFGETVKISCKASGYTFTDYSIHWVKQAPGKGLKWMGWINTETGVPTYADDFKGRFAFSLETSASTAYLQINNLKNEDTATYFCARRTGFDYWGQGTTLTVSS
VL: DIVMTQAAFSIPVTLGTSASISCRSSKNLLHSDGITYLYWYLQRPGQSPQLLIYRVSNLASGVPNRFSGSESGTDFTLRISRVEAEDVGVYYCVQVLELPFTFGGGTKLEIK
notes: also called anti-CLDN18.2 antibody GC182
B2: 69H2 (antibody, mouse IgG1, kappa, V domains shown)
VH: QVQLQQSGPELMKPGASLQISCKASGYFFTTYYIHWVKQRPGQGLEWIGWIYPRGGNTVYNEKFKGKATLTSDTSSSTAYMQLSSLTSEDSAVYYCAINYRSTFGYWGQGTLVTVSA
VL: DVLMTQTPLSLPVSLGDQASISCRSSQNIVHSNGNTYLEWYLQKPGQSPKLLIYKISNRFSGVPDRFSGSGSGTDFTLKISRVEAEDLGVYYCFQGSHVPFTFGSGTKLEIKR
notes: Mouse antibody; the recombinant form is VH/VL fused to mouse IgG1 / kappa constant regions; also called 69H2F7E6; 69H2D3B1
B3: 14G11 (antibody, mouse IgG1, kappa, V domains shown)
VH: QVQLQQSGPELVRPGASVKISCKASGYRFTRNYFHWVKQRPGQGLEWIGWIYPGGFDIEYSEKFKGKATLTTDTSSSTAYMLLTSLTSEDSAVYYCAINYGSTFGYWGQGTLVTVSV
VL: B2 VL with K44R, I56V, S81N
notes: Mouse antibody; the recombinant form is VH/VL fused to mouse IgG1 / kappa constant regions; also called 14G11G2D2; 14G11A4E1

Columns and labels:
[1] = biological target: T1, hCLDN18.2 peptide (amino acid residues …); test: ELISA on coated peptide
Experimental: (§1) 1 μg/ml of peptide ([…]) was coated onto the high-binding clear polystyrene 96 well plates and blocked with blocking buffer. Serial diluted antibodies (from 150 to 0.0732 ng/ml) in blocking buffer were then added and incubated for 1.5 hrs at room temperature. The plate was washed 6 times using washing buffer and then 100 μl/well Goat pAb to Ms IgG(HRP) was added for incubation at room temperature for 1.5 hr. After washing with washing buffer, TMB was added to react with HRP on the plate. Then OD450 nm of the plate was read by SpectraMax i3x (Molecular Devices). 14G11G2D2 and 69H2F7E6 can specifically bind with the peptide with high affinity while GC182 can not recognize the epitope in the linear peptide. (FIG. 3)

[2] = biological target: T2, Human recombinant CLDN18.2 (N-6His) …; test: ELISA on coated recombinant CLDN18.2 (N-6His) variant (1 µg/ml)
Experimental: 1 μg/ml of human recombinant CLDN18.2 (N-6His) variant or human recombinant CLDN18.1 (N-8His) variant (100 μL/well) was coated onto the high-binding clear polystyrene 96 well plates and blocked with blocking buffer. Serial diluted antibodies (from 100 to 0.0244 ng/ml) in blocking buffer were added and incubated for 1.5 hrs at room temperature. The plate was washed 6 times using washing buffer (PBS+0.1% Tween) washer and then 100 μl/well Goat pAb to Ms IgG (HRP) was added for incubation at RT for 1.5 hr. After washing with washing buffer, TMB was added to react with RP on the plate. Then OD450 nm of the plate was read by SpectraMax i3x (Molecular Devices).

[3] = biological target: T3, human CLDN18.1; test: ICC on FFPE HEK293-CLDN18.1 cell block sections; clone 69H2F7E6; '-' = negative staining
[4] = biological target: T2, Human recombinant CLDN18.2 (N-6His) …; test: BLI (ForteBio Octet RED 96), His-tagged antigen on Ni-NTA sensors, antibody 50 and 25 nM in solution, 30 C
Experimental: (§2) 100 nM human recombinant CLDN18.2 (N-6His) (Novoprotein, NC101) protein in 1×Kinetics Buffer ((PBS+0.1% BSA+0.02% Tween20) were loaded onto pre-wet Ni-NTA biosensors (PALL, 18-5101) for 200s. After equilibrated in 1×Kinetics Buffer as baseline (60s), the sensor was immersed into serial diluted antibodies (50 nM, 25 nM) with 1×Kinetics Buffer respectively and incubated for 200s to determine the association (kon), followed by dissociation in 1×Kinetics Buffer for 200s (koff). The biosensors are regenerated for 5s in Regeneration Buffer, followed by neutralization for 5s in Neutralization Buffer for 3 times. All procedure were performed at 30° C. with Octet RED 96 (PALL). The binding affinity KD was calculated and analyzed using the ratio of koff to kon. (FIG. 6).

[5] = biological target: T2, Human recombinant CLDN18.2 (N-6His) …; test: BLI (ForteBio Octet RED 96): His-tagged recombinant hCLDN18.2 variant loaded on Ni-NTA biosensors, antibody in solution at 50 nM and 25 nM
Experimental: as §2

[6] = biological target: T1, hCLDN18.2 peptide (amino acid residues …); test: ELISA: hCLDN18.2 peptide (aa 28-37) coated on the plate at 1 ug/ml, antibody dilution series up to 150 ng/mL, detection with goat anti-mouse IgG-HRP, OD450-OD620
Experimental: as §1

[7] = biological target: T3, human CLDN18.1; test: ICC on FFPE HEK293-CLDN18.1 cell block sections; clone 14G11F5E1; '-' = negative staining

Binder	binding result [1]	EC50 [2]	binding result [3]	Kd [4]	koff [5]	kon [5]	EC50 [6]	binding result [7]
B1	no binding (tested: 150 ng/ml (highest concentration tested))	–	–	–	–	–	–	–
B2	–	0.0139 µg/mL	no binding (tested: 1 nM)	1480 pM	0.000695 s⁻¹	471000 M⁻¹ s⁻¹	0.0143 µg/mL	–
B3	–	0.0127 µg/mL	–	213 pM	0.000111 s⁻¹	522000 M⁻¹ s⁻¹	0.027 µg/mL	no binding (tested: 0.5 nM)
